From the DeepSol protein solubility set

Experiment: soluble on expression in E. coli; label from the status in PepcDB or PDB records

Row | Sequence | soluble on expression in E. coli
1 | MSGALDGVRVLDLSRVLAGPYATMILGDLGADVIKVEAPGGSDDTRFWGPPFQNGMSAYYTAVNRNKRSITVNLKSAEGQETIRRLAETADVLIHNFKTGTMEQWELGYESLSRLNPRLIYCSITGFGETGPLAPLAGYDYIIQAMSGWMSINGTADTGPLKVGVAVTDVFTGLYAAIAIEAALLAREKTGRGQKIDLALFDCAVSALVNVAANYLLSGDVPKPLGNEHPNIVPYSTYMASDGPIVIAVGNDRQFQALCSLLSDHSLGTDPRFQTNPGRVAHREELNRRLNEEIKRRTRAEWQRLLAEKGIPCGPVQTLDELFRHPQTAAREMTVTVHHPIVGPLTLVASPLKLSDTAVSYRLPPPLAGEHNGEVEAGWQGKPAAENGPHDKNQ | not soluble
2 | VKMIFIFIDGFGIGKEDASVNPLANPELPNINYILNKAGAIPTDACLDVPGLPQSATGQTTIFTGQNASKVLSRHLHGQPTITLKKMIIENNLFKELIKRGFSVTNSNVYRTPYIEKIKDPKERKYRPSVTTVMTLSCGLNLRTVEEYITGDGVYHDIIGEILKNEGYVEELITPREAAQRLYSLSRKYDFTLFEYFVTDILGHKMEMEEAVEKLKILDAFLGELLNLYNEDEDIIFITSDHGNIEDLTVNTHTFNKVPTVILGKIPENVEIEINSLTDIMPTILKIFDAKGEL | soluble
3 | GMSIYNSIGKQYSQTRVPDIRIVNAIINLLNLPKGSVIADIGAGTGGYSVALANQGLFVYAVEPSIVMRQQAVVHPQVEWFTGYAENLALPDKSVDGVISILAIHHFSHLEKSFQEMQRIIRDGTIVLLTFDIRLAQRIWLYDYFPFLWEDALRFLPLDEQINLLQENTKRRVEAIPFLLPHDLSDLFAAAAWRRPELYLKAEVRAGISSFALANQDLVEKGLELLTADLNNGEWIRKYGEIHHLQEIDIGYRFIYTTLDK | soluble
4 | MTKIWTRDGFAENDPWVIETEEVKATGEQKPVLPLADFLVRAAESNDIGLGVLISPADDVNRLEPYLDRIDLVAVSFPAFNDGRGFSHASLLRSRLGFAGEVRAVGDVLIDQVPLMLRTGFTSFAVTNETAIRRLSENRLPEITVYYQPTALPATGGEAYSWRRRAAQ | not soluble
5 | MIQDVIEKKLSDEFQPEFLKVINESDMHNVPRGSESHFKVTVVSERFAGLRPVARHRLVNQTLADELANHIHALAIHTYTTQEWQQMNQESPESPMCLGGSRKSAQ | not soluble
6 | MGSDKIHHHHHHMSKPGAELEEVFSSVQGEGMLIGLRQVFIRFRGCNLTCDYCDTPAGTPAEPCRIEQTPGRRDFVPADNPVSLDRVAALVEGWQRGWPGVHDSISITGGEPLLRHDILMQWLPVLREHLPVYLETNGVMHAALGLVINHVDIIGMDIKIPSTSGCTDLWDDHRQFLEIANTRRAFIKIVVGEETEDWEITRASEIIAGVNRDIPLILQPVTRAGDTLGIKPVKALELQELACRYLAEVRIIPQTHRFMGQL | not soluble
7 | MGHHHHHHSHMVCSPVTVRIAPPDRRFSRSAIPEQIISSTLSSPSSNAPDPCAKETVLSALKEKKKKRTVEEEDQIFLDGQENKRSCLVDGLTDASSAFKVPRPGPDTLQFTVDVFHFANDSRNMIYITCHLKVTLAEQDPDELNKACSFSKPSNSWFPVEGPADICQCCNKGDCGTPSHSRRQPRVVSQWSTSASRNRRHVTEEADVTVGATDLPGQEW | not soluble
8 | MLKSGRLNFLKLNINSRLLYSTNPQLTKKVIGIDLGTTNSAVAYIRDSNDKKSATIIENDEGQRTTPSIVAFDVKSSPQNKDQMKTLVGMAAKRQNAINSENTFFATKRLIGRAFNDKEVQRDMAVMPYKIVKCESNGQAYLSTSNGLIQSPSQIASILLKYLKQTSEEYLGEKVNLAVITVPAYFNDSQRQATKDAGKLAGLNVLRVINEPTAAALSFGIDDKRNNGLIAVYDLGGGTFDISILDIEDGVFEVRATNGDTHLGGEDFDNVIVNYIIDTFIHENPEITREEITKNRETMQRLKDVSERAKIDLSHVKKTFIELPFVYKSKHLRVPMTEEELDNMTLSLINRTIPPVKQALKDADIEPEDIDEVILVGGMTRMPKIRSVVKDLFGKSPNSSVNPDETVALGAAIQGGILSGEIKNVLLLDVTPLTLGIETFGGAFSPLIPRNTTVPVKKTEIFSTGVDGQAGVDIKVFQGERGLVRNNKLIGDLKLTGITPLPKGIPQIYVTFDIDADGIINVSAAEKSSGKQQSITVIPNSGLSEEEIAKLIEEANANRAQDNLIRQRLELISKADIMISDTENLFKRYEKLISSEKEYSNIVEDIKALRQAIKNFKANENDMSIDVNGIKKATDALQGRALKLFQSATKNQQNQGK | not soluble
9 | MGSDKIHHHHHHMQKRNELPGHLAVAPFTLDSARASGVSRARLRRKDVVHVGRGLYRPSDWNFELEAAARALSTASPGAWISHVTAARLHCQLLPPWLADSTELHLSKPRALPSVRRSGVIGHTVVALEDEIESIDGLRVSTRSRTWLDLARRLPVSDLVCMGDQLIRVPRVAFEGRTRPYDTLDGLRTLVGRHPNLQGVVRAREALHLMRVGADSAPESLLRLAMADAGLPEPELQLALRPTDAVSPTADLGYRHRRLAIQYDGEHHLLDAQIFSDRRRDKAFESAGWTVLILGKDDLADGCRPAVSKIKRLLRTAWLDHPQASGFADAG | not soluble
10 | MHITLRQLEVFAEVLKSGSTTQASVMLALSQSAVSAALTDLEGQLGVQLFDRVGKRLVVNEHGRLLYPRALALLEQAVEIEQLFREDNGAIRIYASSTIGNYILPAVIARYRHDYPQLPIELSVGNSQDVMQAVLDFRVDIGFIEGPCHSTEIISEPWLEDELVVFAAPTSPLARGPVTLEQLAAAPWILRERGSGTRDIVDYLLLSHLPKFEMAMELGNSEAIKHAVRHGLGISCLSRRVIEDQLQAGTLSEVAVPLPRLMRTLWRIHHRQKHLSNALRRFLDYCDPANVPR | not soluble
11 | MSLKIIDFRLRPPAMGFLNARIYTRPDIRNRFTRQLGFEPAPSAEEKSLELMFEEMAAAGIEQGVCVGRNSSVLGSVSNADVAAVAKAYPDKFHPVGSIEAATRKEAMAQMQEILDLGIRIVNLEPGVWATPMHVDDRRLYPLYAFCEDNGIPVIMMTGGNAGPDITYTNPEHIDRVLGDFPDLTVVSSHGNWPWVQEIIHVAFRRPNLYLSPDMYLYNLPGHADFIQAANSFLADRMLFGTAYPMCPLKEYTEWFLTLPIKPDAMEKILHGNAERLLAQAGREGHHHHHH | soluble
12 | MLPSTMFLVHLPLSTNRLHCLRNTSLESCLCSFVHLNHPLHISDPVILISLHEAVRFSFAFSFPRGTLSIAYCLMSSVSTSSEAIMSTELLANYCHSSLHVCICISSFPNETGNHDSFPGAVVSISDQPTDQCKLAAKELPLRNLLECRFFDCMGEEDLINLGVIGTER | soluble
13 | MFTGLVEAIGVVKDVQGTIDNGFAMKIEAPQILDDCHTGDSIAVNGTCLTVTDFDRYHFTVGIAPESLRLTNLGQCKAGDPVNLERAVLSSTRMGGHFVQGHVDTVAEIVEKKQDGEAIDFTFRPRDPFVLKYIVYKGYIALDGTSLTITHVDDSTFSIMMISYTQSKVIMAKKNVGDLVNVEVDQIGKYTEKLVEAHIADWIKKTQA | soluble
14 | MTSSDSNVDPGLGIAVDLGTTTLAASLVDLSSGERLASAGSLNPQREFGADVVSRLDAACRSGEALQRMAALVREELYRLAARLLDSAGEARDRLRMVAVAGNPAMEHLLLGLPVVRLAYPPYRPLFSTSTHISAADLGWDLSGRVALFPLPGGFVGGDTVAFLFGVPDVCAPCPGPRLFLDMGTNGEMVLQCGDVLLGTSAAAGPAFEGGGLACGMAALPGAVNGIIRDGDRVRVTTIGGGQPLGICGSAVLDTVALLLEEGLLDSTGRLLPPEEIASPVGARMGTVGGEPAFILHRDAARTIYLSQGDIRQVQLAKGAIRAGMEVLCERARIRCEDIEEVVLTGSFGAVLSPRSLKFIGIFTEKMVQTTRFVREGALAGAERALTAPEGFEAVDRLARALRVIPLSGTPAFEKHFLKHIDFPSRLEHHHHHH | soluble
